Self-cleavage data for 167 variants are collected here from the RNAGym collection of RNA variant scans (doi:10.7554/elife.80360).

B1: Hairpin Ribozyme (parent)
chain: GUCCUCUUUCACGUGCGCGUGAAAGAGAGAAGUGAACCAGAGAAACACACGUUGUGGUAUAUUACCUGGUA

This data set covers variants of B1. As to the kind of experiment: self-cleavage, relative activity (ratio to wild type); higher = more cleavage; co-transcriptional.
Turning to A11U U58C, the self-cleavage was determined as 0.822.
The value for C12A G56A was 0.182.
With A11G G51C the figure was 0.784; with C10U G51U, 0.888; with C10U G51A, 0.881.
With A11C G15C the figure was 0.752.
Take A11C G15A: the self-cleavage stood at 0.819.
The value for A11C U62G was 0.199.
As to A11U G15U, the self-cleavage was 0.895.
The value for A11G A28C was 0.446; that for A11C U60C was 1.27.
As to A11G A35C, the self-cleavage was determined as 0.996.
The value for A11G A35U was 0.764.
Regarding A11U A45G, the self-cleavage came to 0.
The value for A11U A45C was 0.241.
With C12A A41U, the self-cleavage stood at 1.13.
The value for C12A A41C was 1.05; that for A11C G29C was 0.137.
With A11C G29U, the self-cleavage came to 0.113.
In the case of C12A A49C, the self-cleavage turned out to be 0.0858.
With A11G G69A the figure was 0.405.
The value for A11U C65U was 0.25; that for A11U C65G was 0.308; that for A11U U62G was 0.0971.
In the case of C10U A49G, the self-cleavage is 0.422.
With C10U A49C the figure was 0.143.
Turning to A11C U20A, the self-cleavage came to 0.774.
The value for A11C U20G was 1.04.
Turning to A11U C48U, the self-cleavage is 0.154.
The value for A11U C48A was 0.215.
With C12A A71U the figure was 0.701; with C12A A71C, 1.26; with A11C U53A, 0.919.
The value for A11G G34A was 1.18; that for A11G U53A was 0.945.
In the case of A11G U53G, the self-cleavage amounted to 0.755.
The value for A11G C12A was 0.735; that for A11G C12U was 0.778; that for A11C G17A was 0.759.
C10U G68A: the self-cleavage worked out at 0.217.
With C12A U20A the figure was 0.865; with C12A U20C, 0.919.
The value for A11C G21C was 0.732; that for A11C G21A was 0.605; that for C10G G51U was 0.699.
Take C10G G51A: the self-cleavage was found to be 0.755.
The value for C12A G13C was 0.927.
Take C12A G13A: the self-cleavage stood at 0.635.
The value for C10U C66U was 0.43; that for C10U C66G was 0.19.
On to C10U G40A, for which the self-cleavage turned out to be 0.308.
With A11U G40U the figure was 0.154; with C10U U20A, 0.774; with A11C U67C, 0.225.
The value for A11C G51A was 1.08; that for A11G C65U was 0.227; that for A11G C65A was 0.759.
As for C12A A36U, the self-cleavage was found to be 0.435.
The value for A11U G32U was 0.0846.
Turning to A11G C66A, the self-cleavage is 0.29.
In the case of A11C G13A, the self-cleavage turned out to be 0.661.
With C12A A22U the figure was 0.737.
C12A A45G: the self-cleavage came out at 0.177.
With C12A A45U the figure was 0.132; with C12A C37U, 0.578; with A11G A44G, 0.0822.
The value for A11G A44C was 0.203.
With A11U A26C the figure was 0.305; with A11U U14A, 0.796.
Regarding A11C C38U, the self-cleavage came out at 0.515.
For C10U A24U, the self-cleavage came out at 0.778.
C10U A24G: the self-cleavage stood at 0.885.
The value for C10U A24C was 0.613; that for C10G U62C was 0.261.
Regarding C10G U62A, the self-cleavage is 0.0993.
As for C10U G17C, the self-cleavage stood at 0.58.
The value for C10U G17A was 0.808; that for A11U U63G was 0.175.
With A11G U14G, the self-cleavage was determined as 0.846.
Consider C12A U67C, for which the self-cleavage amounted to 0.216.
The value for C12A U67G was 0.215; that for C12A U67A was 0.18; that for C10U C18G was 0.755.
Consider A11C C65G, for which the self-cleavage came to 0.331.
For A11G U20A, the self-cleavage was 0.637.
The value for C12A G21A was 0.767; that for A11C U33G was 0.0703.
With A11C U33C the figure was 0.252.
With A11C U33A, the self-cleavage worked out at 0.222.
C10U C12U: the self-cleavage turned out to be 0.652.
With A11C C48G the figure was 0.0688; with A11C C48A, 0.0917.
For A11C C48U, the self-cleavage stood at 0.266.
With A11U C50A the figure was 0.153; with A11C U52C, 1.06.
As for C10U A71G, the self-cleavage is 0.811.
In the case of C12A G25C, the self-cleavage came to 0.346.
As for C10U U62C, the self-cleavage was 0.281.
The value for A11U C66U was 0.318; that for C12A A26G was 0.766.
Regarding C12A A26U, the self-cleavage was determined as 0.522.
With A11C A22G the figure was 0.966; with A11U A43G, 0.135.
The value for A11U A43C was 0.139.
Regarding A11G C46U, the self-cleavage came out at 0.203.
With C10U G34C the figure was 1.02; with A11C U70C, 1.23; with C10U G25A, 0.429.
C10G U60A: the self-cleavage came to 0.608.
With A11C C18A the figure was 0.768; with C10G G56A, 0.156; with A11C U63A, 0.201.
The value for A11C A41U was 1.29; that for A11C A41C was 1.25.
The value for A11G G29U was 0.142.
Turning to A11C A45U, the self-cleavage worked out at 0.128.
With A11C A45C the figure was 0.0923.
The value for C12G A22G was 0.739; that for C12G A22U was 0.686.
As to C12A U62A, the self-cleavage is 0.168.
With A11G U60C the figure was 1; with A11G U60A, 0.732; with A11C G40U, 0.181.
The value for A11C G40C was 0.182; that for C10U U70G was 0.698; that for A11U A71C was 1.17.
A11U G57U: the self-cleavage turned out to be 0.337.
A11U G57A: the self-cleavage was determined as 0.15.
Regarding A11U G27U, the self-cleavage amounted to 0.394.
Consider A11G A71U, for which the self-cleavage came out at 0.749.
With A11G A71C the figure was 1.35; with C12A G42U, 0.301; with C12A G42C, 0.272.
With C12A G34U the figure was 1.31; with A11C A24C, 0.709; with A11C A24U, 0.615.
As for C12A G68U, the self-cleavage stood at 0.251.
The value for C12A G68A was 0.262; that for C12A G68C was 0.241.
The value for C10U G21A was 0.937.
As to C10U G21C, the self-cleavage came to 0.77.
On to C12A A61U, for which the self-cleavage was 0.169.
Turning to C12A A61C, the self-cleavage was determined as 0.239.
With A11C A43U the figure was 0.163; with A11U G69C, 0.229.
The value for A11U G69U was 0.26.
The value for C12A G17A was 0.746.
Consider C12A G17U, for which the self-cleavage is 0.707.
With C12A G17C the figure was 0.978; with C10U A64C, 0.213.
With A11G C50G, the self-cleavage was determined as 0.346.
Consider A11G C50A, for which the self-cleavage is 0.196.
The value for A11G A47C was 0.481; that for A11U U70G was 0.656.
The value for A11U U70A was 0.914.
For A11G G25C, the self-cleavage was determined as 0.587.
With A11G G25U the figure was 0.569.
With A11G G32A, the self-cleavage stood at 0.0907.
With A11G G32U the figure was 0.104; with A11U A30C, 0.236.
Take A11G A36G: the self-cleavage came out at 0.972.
With A11G C18A the figure was 0.795; with A11G C18U, 0.939.
As for A11C A39G, the self-cleavage is 0.275.
With A11C A39C the figure was 0.514; with C10U G32A, 0.176; with C10U G32U, 0.164.
